Experimental data as given in article PMC7617694 (Molecular cell, 2025).
Positions count from the first letter of the chain named. Each block holds one molecule with its values, some of them ahead of it.

Key:
Assay in all cases: cryo-EM structure
[1] = target: Recombinant human CXCL5 (human)
[2] = target: T1, Recombinant human CXCL2 (human, UniProt P19875 35-107)
T1 sequence: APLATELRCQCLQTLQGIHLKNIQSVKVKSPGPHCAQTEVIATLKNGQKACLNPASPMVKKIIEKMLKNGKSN

[3] = target: T2, Recombinant human CXCL3 (human, UniProt P19876 35-107)
T2 sequence: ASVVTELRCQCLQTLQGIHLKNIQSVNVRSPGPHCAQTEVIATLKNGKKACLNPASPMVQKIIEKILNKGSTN

[4] = target: T3, Recombinant human CXCL1 (human, UniProt P09341 35-107)
T3 sequence: T1 sequence with P2S, L3V, L20P, K27N, Q48R, M58I, K68N, N69S, G70D

stoichiometry N [1]: 2
Molecule: Recombinant human CXCL5 (ligand)

binding result [2]: binds
binding result [3]: binds
binding result [4]: binds
B1: C-X-C chemokine receptor 2 (CXCR2), FLAG-tagged, purified from Sf9 cells (receptor)
chain: ANFTPVNGSSGNQSVRLVTSSSMEDFNMESDSFEDFWKGEDLSNYSYSSTLPPFLLDAAPCEPESLEINKYFVVIIYALVFLLSLLGNSLVMLVILYSRVGRSVTDVYLLNLALADLLFALTLPIWAASKVNGWIFGTFLCKVVSLLKEVNFYSGILLLACISVDRYLAIVHATRTLTQKRYLVKFICLSIWGLSLLLALPVLLFRRTVYSSNVSPACYEDMGNNTANWRMLLRILPQSFGFIVPLLIMLFCYGFTLRTLFKAHMGQKHRAMRVIFAVVLIFLLCWLPYNLVLLADTLMRTQVIQETCERRNHIDRALDATEILGILHSCLNPLIYAFIGQKFRHGLLKILAIHGLISKDSLPKDSRPSFVGSSSGHTSTTL
